For data set [1], the system named is female Wistar rats. The settings on record: rat, in vivo.
Data set [2] has as its system female Wistar rats. The following applies: rat, in vivo. This is another data set of the same source.
Method: MATERIALS AND METHODS: Antibody titers were evaluated using an ELISA assay. 100 μL of 1 μg/mL of rat interferon beta (Cell Sciences Inc. (Canton, Mass.)) in coating buffer was added to the wells of a 96 well plate. The plate was incubated at 4° C. overnight. Well contents were removed and the wells were blocked with 5% skim milk in PBST for 2 hours at 37° C. Wells were washed and 100 μL of serum samples were added to the first row of wells. Samples were serially diluted across the plate. The plate was incubated for 1 hour at 37° C. and washed. 100 μL of 1:4000 diluted, anti-rat HRP-conjugated antibody was added to each well and the plate was incubated for 30-60 minutes at 37° C. 100 μL of TMB color developer was added to each well. 200 μL of hydrochloric acid reaction stopper was added to each well. The plate was read at 450 nm. The antibody titer is the dilution giving 3 times absorbance of blank serum.
STUDY DESIGN: A chronic dosing regimen was performed in female Wistar rats using recombinant rat IFN-β (Cell Sciences Inc. (Canton, Mass.)). An injection route comparison was performed evaluating the immunogenicity of IFN-β upon injection intradermally or intramuscularly. IFN-β was injected intradermally using BD's 34 Ga, 1 mm needle and injected intramuscularly using BD 30 Ga×0.5″ to the hamstring muscle. […] Blood samples were collected once a week.
The test system of data set [3] is female Wistar rats. Put plainly: Histological evaluation of injection site following IM and ID administration of interferon-beta. It counts as in vivo, rat. An excerpt:
Sample Preparation: For ID injection, the skin was removed from each injection site and placed on a small card. The excised skin was approximately lcm in diameter with the needle insertion point in the center. The center of the injection was marked with black tattoo ink at time of injection to help identify the needle insertion point. Samples were placed in individual containers with 10% formalin for fixation. For IM injection, the needle insertion point was marked with black tattoo ink at the time of injection. The skin was carefully lifted and the muscle surface directly below the needle insertion point was marked with black tattoo ink. The hamstring muscle was collected and placed on a small card. Samples were placed in individual containers with 10% formalin for fixation. […]
Sample Identification: Samples are identified by the following system. In animals 801, 803, 804, 806, 807, 808, 809 and 810 intramuscular injections were made to the hamstring muscle of female Wistar rats. In animals 811, 812, 813, 814, 815, 816, 817, 818, 819 and 820 intradermal injections (approximately 1 mm deep) were made to the lateral dorsum of female Wistar rats.
Specimen Preparation: A single section was taken from each sample. Tissue was blocked to a size appropriate for sectioning. The section was taken through the needle insertion track. Sections were H&E stained and evaluated. If evidence of irritation was observed, further sections were taken to determine the extent of the irritation. Samples were graded on a multi-parameter irritancy scale. Histological alterations were graded on the following 5-grade scale: • Grade 0: Normal/Absent/None • Grade 1: Minimal/Cell Degeneration • Grade 2: Mild/Cell Necrosis • Grade 3: Moderate/Focal Erosion • Grade 4: Marked/Massive/Generalized Erosion • Present: Finding present/Severity not scored
In addition to the grading scale, descriptions of changes and findings were documented. Measurements were taken of the Width and Depth of any site irritation as well as skin thickness. Representative photos were taken of each condition.
Study Design: Rat interferon beta (Cell Sciences Inc. (Canton, Mass.)) was administered IM or ID in phosphate buffered saline using methods described supra. The animals were divided according to the following scheme:
Intramuscular Group—Day 1: The hair on the back and on the back of the rear leg was clipped. Injection was performed using a BD 30 G×0.5″ needle to the hamstring muscle. 50 μL was injected. The center of the injection was marked with black tattoo ink to help aid in injection track identification. Rats were returned to their cages for recovery.
Intramuscular Group—Day 2 (24 hrs. post-injection): Rats were euthanized by CO2 asphxiation and the skin from rear leg was removed. The muscle directly below the needle insertion point on the skin was marked with black tattoo ink. The hamstring muscle was excised, placed on small card and stored in 10% formalin solution.
Intradermal group-Day 1 The hair on the lateral dorsum was closely clipped. and injection was performed using a 1 mm BD microneedle. 50 μL was injected The center of the injection was marked with black tattoo ink to help aid needle track identification. Rats were returned to their cages for recovery.
[…] A 1 cm diameter margin of skin (full-thickness) around the injection site was excised. Skin was placed on a small card and stored in 10% formalin solution.

Data set [4] deals with female Wistar rats. Put plainly: Visual observation of injection site irritation. It counts as in vivo, rat. The settings on record: ID administration, 3 times/wk for 24 weeks. An excerpt: (§1) Blood samples were collected once a week.
FIGS. 16A-B show injection site photos of IFN-β to female Wistar rats. Panel A is an intramuscular injection. The back of a rat's leg is shown. The injection was made into the hamstring muscle. Panel B is an intradermal injection on the rat's back. The “bleb” is circled. No irritation is evident in either photo. These photos were taken immediately post-injection.

In data set [5] the test system is female Wistar rats. Put plainly: Isotype specific (IgG1, IgG2b) antibody response against IFN-β by ELISA. Type of data set: in vivo, rat. How it is done: Isotype specific antibody responses against IFN-β were determined at weeks 2 and 24 post-injection using an ELISA Quantification Kit, commercially available from Bethyl Laboratories (Bethyl Inc., Montgomery, Tex.). A 96 well microtiter plate (Nunc Maxi-sorb plate) was coated with 1 μg/mL of IFN antigen and incubated overnight at 4° C. (to generate a standard curve wells were coated with 1 μL of capture antibody to 100 μL coating buffer); plates were washed with 50 mM Tris buffered saline, pH 8.0, 0.05% Tween (Sigma #T9039); 200 μL of Post Coat/Block solution (50 mM Tris buffered saline, pH 8.0, 1% BSA; Sigma #T6789) was added per well and incubated covered for 30 minutes at room temperature. Standards were prepared according to the package insert using the Sample/Conjugate Diluent (0.5 mL of 10% Tween 20; Sigma # P7949) per 100 mL of PostCoat/Block Solution; sample dilutions were made using the Sample/Conjugate Diluent; 100 μL of standard or sample was transferred to assigned wells and incubated for 1 hour at room temperature; conjugate was prepared according to package insert (1:20,000 for IgG1 and 1:40,000 for IgG2b); 100 μL of the conjugate was added per well and incubated for 1 hour at room temperature; 100 μL of TMB per well was added and incubated at room temperature for 30 minutes; 200 μL of 0.5 M H2SO4 per well was added to stop the reaction; plates were read at 450 nm.
as §1
(In general: In an ELISA, binding on a coated surface is turned into a signal by an enzyme label.)

The mark [6] stands for this setting: ID injection, individual animals, marked grade.

These results are taken from US20050196380A1, “Method for delivering therapeutic proteins to the intradermal compartment” (priority 2004, published 2005).

Where “and” joins values, the source holds several entries; their conditions need not be identical. Equal values may be shown once. Entries after “also recorded” stand apart in the source; their conditions may differ.

B1: IFN-β: recombinant rat IFN-β (Cell Sciences Inc., Canton, Mass.) (protein, UniProt P70499 22-184, looked up)
Interferon beta: IDYKQLQFRQSTSIRTCQKLLRQLNGRLNLSYRTDFKIPMEVMHPSQMEKSYTAFAIQVMLQNVFLVFRSNFSSTGWNETIVESLLDELHQQTELLEIILKEKQEERLTWVTSTTTLGLKSYYWRVQRYLKDKKYNSYAWMVVRAEVFRNFSIILRLNRNFQN
Regarding B1, the “mean IFN-β specific NAbs titers, IM vs ID” value with female Wistar rats [1] was “not significantly different”. Also, in the data set on female Wistar rats [2], the “animals with increase in titer from week 12” value is reported as “one”; the “animals with marked increase in titer from week 12” value is “Three”; the “antibody response, ID vs IM” value is given as “slightly stronger”; the “antibody response, IM vs ID” value is “slightly higher”. Also, in the data set on female Wistar rats [2], the “antibody titers by ELISA, IM vs ID” value is reported as “not significantly different”; the “mean antibody response, IM vs ID” value is listed as “higher mean antibody response”; the “mean antibody titers by ELISA, IM vs ID (two sample t-test)” value is recorded as “not significantly different”. The “cellular reaction, in general” value in the data set with female Wistar rats [3] (2 weeks) is given as “minimal”. Also, the “infiltration of injection sites with lymphocytes and neutrophils” value with female Wistar rats [3] (2 weeks, intradermal sites) is reported as “minimally infiltrated”. Besides, the “inflammatory cell infiltrates of injection sites, compared with intradermal sites” value with female Wistar rats [3] (2 weeks, intramuscular sites) is “more prominent”. The “cellular reaction (inflammation)” value with female Wistar rats [3] (24 weeks, ID injection) is given as “minimal to moderate”. Moreover, the “Irritation Index” value in the data set on female Wistar rats [3] (ID injection, individual animals 811-820, 24 hours post-injection) was 3 and 2. Moreover, in the data set on female Wistar rats [3] (setting [6]), the “Dermis, leukocyte infiltration (per 40× field)” value was “Moderate - 51-100 (Moderate - 51-100)”; the Edema grade entry is given as “Absent”; the Epidermis reaction grade result was “Normal, intact”; the “Vascular Congestion grade” value is on record as “Absent”. Besides, in the data set on female Wistar rats [3] (ID sites), the “overall irritation index designation / histopathological classification of irritation” value is “minimal”. The “acute or chronic injection site irritation (external, visual)” value with female Wistar rats [4] was “No external acute or chronic injection site irritation”. The “IFN-β specific IgG1 antibody, ID vs IM” value with female Wistar rats [5] (week 2) was “only one animal showed any detectable IgG1 antibody; also recorded: higher”. Also, in the data set with female Wistar rats [5] (week 2, IM or ID), the “IFN-β specific IgG2b antibody” value was “no IgG2b was detectable”. Besides, the “mean IFN-β specific IgG2b concentration, ID vs IM” value in the data set with female Wistar rats [5] (week 24) is reported as “not significantly different; also recorded: comparable”.
